# Laboratory results from patent US20260108606A1, “TREATMENT OF AUTOIMMUNE DISEASES HAVING A PATHOGENIC T CELL STATE” (THE BRIGHAM AND WOMEN'S HOSPITAL, INC., priority 2023, published 2026).
# Tests used:
# Format in all cases: cell-based, mouse
# TCF1 = experiment: Th17 in vitro differentiation, TCF1 and RORγt expression by flow cytometry
# Procedure: (§1) Single-cell suspension were prepared from spleen and lymph nodes, and CD4 T cells isolated using the anti-CD4 microbeads (Miltenyi, catalogue #130-117-043). Subsequently, naïve CD4 T cells (CD62L^+ CD44^− CD25^−) were enriched through fluorescence activated cell sorting (FACS) performed on a BD FACSAria Ilu. Naïve CD4 T cells were activated for 3 days with 1 ug/ml of plate-bound anti-CD3 (BioXcell, BP0001) and anti-CD28 (BioXcell, BE0015), plus the addition of 20 ng/ml of IL-1B (R&D Systems), 25 ng/ml of IL-6 (R&D Systems), 20 ng/ml of IL-23 (R&D Systems), 20 ug/ml of anti-IFNγ (BioXcell, BE0055) and 20 μg/ml of anti-IL4 (BioXcell, BE0045) for pathogenic Th17; 2 ng/ml of TGFβ1, 25 ng/ml of IL-6, 20 μg/ml of anti-IFN and 20 μg/ml of anti-IL4 for non-pathogenic Th17. Cells were then rested in un-coated plates in absence of anti-CD3/anti-CD28 stimulation for 2 days. For some experiments, cells were re-stimulated with 1 ug/ml of anti-CD3/anti-CD28 for 1-2 days.
# (§2) Single-cell suspensions were firstly stained to discriminate live cells with UV Zombie (Biolegend) in PBS, and then in FACS buffer (2% bovine serum albumin in PBS) with antibodies for surface antigens. […] Fully stained samples were read either at a BD LSRFortessa or BD FACSymphony. The data were analyzed with FlowJo software (TreeStar) and GraphPad Prism software (GraphPad).
# Tcf7 locus = Tcf7 locus reporter (Tcf7-GFP) activity in Th17 cells; conditions: CD4 T cells of Tcf7 locus reporter strain, IL-1β+IL-6 with or without IL-23 for 3 days, then 2 days of rest (FIG. 8C)
# Procedure: as §1, §2
# CD4+ T cells = experiment: Glycolytic rate assay using Seahorse (ECAR); conditions: WT cells differentiated with IL-1β+IL-6 with or without IL-23 (FIG. 12G)
# Excerpt: FIG. 12A-12K—TCF1 deficiency obviates the need for IL-23 for Th17 pathogenicity. (FIG. 12A) Schematic view of in vitro differentiation with IL-1b and IL-6 for adoptive transfer experiments. (FIG. 12B-12D) CNS-infiltrating immune cells (FIG. 12B-12C) or immune cells from draining lymph nodes (dLN) (FIG. 12D) were harvested from mice at peak of disease (EAE score 1-5) and analyzed by flow cytometry. (FIG. 12B) Summary data of the frequency of Foxp3+ cells within the 2D2 cell population infiltrating the CNS (WT n=11; KO n=12). (FIG. 12C) Summary data of cytokine production by host CD4+ T cells infiltrating the CNS (WT n=10; KO n=12). (FIG. 12D) Summary data of the frequency of SLAMF6+ and CXCR6+ cells within 2D2+ cells in the dLN of recipients of 2D2 TCF1 WT (n=8) and TCF1cKO (n=10) cells. […] (FIG. 12I-12J) CNS-infiltrating 2D2 cells were harvested and FACS-sorted from mice at peak of disease (EAE score 1-5) and analyzed by confocal microscopy. […]
# Th17 pathogenicity is driven by IL-23 and has been associated with increased glycolytic activity and lipid metabolism, which in turn, supply crucial sterol ligands to boost RORγt transcriptional activity. […] The disclosure further assessed the intra-cellular lipid content of 2D2 TCF1 WT and 2D2 TCF1cKO cells isolated from the CNS of p19^−/− mice.
molecule,measurement,setting,value
"IL-23: a cytokine critical for inducing pathogenic Th17 cells (protein, UniProt Q9NPF7 20-189; P29460 23-328, looked up) Interleukin-23 subunit alpha: RAVPGGSSPAWTQCQQLSQKLCTLAWSAHPLVGHMDLREEGDEETTNDVPHIQCGDGCDPQGLRDNSQFCLQRIHQGLIFYEKLLGSDIFTGEPSLLPDSPVGQLHASLLGLSQLLQPEGHHWETQQIPSLSPSQPWQRLLLRFKILRSLQAFVAVAARVFAHGAATLSP Interleukin-12 subunit beta: IWELKKDVYVVELDWYPDAPGEMVVLTCDTPEEDGITWTLDQSSEVLGSGKTLTIQVKEFGDAGQYTCHKGGEVLSHSLLLLHKKEDGIWSTDILKDQKEPKNKTFLRCEAKNYSGRFTCWWLTTISTDLTFSVKSSRGSSDPQGVTCGAATLSAERVRGDNKEYEYSVECQEDSACPAAEESLPIEVMVDAVHKLKYENYTSSFFIRDIIKPDPPKNLQLKPLKNSRQVEVSWEYPDTWSTPHSYFSLTFCVQVQGKSKREKKDRVFTDKTSATVICRKNASISVRAQDRYYSSSWSEWASVPCS",TCF1 protein expression,"TCF1; naïve CD4+ T cells differentiated with IL-1β and IL-6 for 2 days, then increasing doses of IL-23, dose-dependent (FIG. 1F)",decreased significantly
same,proportion of TCF1lo RORγt hi cells,"TCF1; pTh17 differentiated for 3 days, then fresh IL-23 added in the culture media (FIG. 8D)",increased proportion
same,Tcf7 locus reporter activity,Tcf7 locus,significantly decreased
same,glycolysis (extracellular acidification rate; ECAR),CD4+ T cells,increased glycolysis
